Test results reported in the emibetuzumab library of Makowski et al. (2022).

B1: VH:VL chains; a variant is named by its letters at X, in order (parent)
chain 1: QVQLVQSGAEVKKPGASVKVSCKASGYTFTDYXMHWVRQAPGQGLEWMGXVNPNXXXTTYNQKFEGRVTMTTDTSTSTAYMELRSLRSDDTAVYYCARXNXLDXWGQGTTVTVSS
chain 2: DIQMTQSPSSLSASVGDRVTITCSVSSSVSSIYLHWYQQKPGKAPKLLIYSTSNLASGVPSRFSGSGSGTDFTLTISSLQPEDFATYYCQVYSGYPLTFGGGTKVEIK

Variants of: B1
Test: yeast display scFab, FACS + sequencing
Method in brief: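 Non-specific binding was called from deep sequencing of sorted yeast cells displaying a heavy-chain CDR mutant scFab library. Cells labelled with anti-Myc and biotinylated ovalbumin (260 μg/mL in PBSB, 3 h, room temperature) or soluble membrane proteins (130 μg/mL, 20 min on ice) were FACS-sorted, collecting the top 25% and bottom 10% of binders from two replicates. A sequence was positive when present in ≥3 of 4 pooled positive samples and absent from all negatives, and negative under the converse rule.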

Row | Variant | non-specific binding call
1 | FRGRAAVD | binds
2 | VRGGDDGS | no binding
3 | VRGGDDGV | no binding
4 | YRGGDYSV | no binding
5 | VRGKAAVS | binds
6 | DRGGDSSS | no binding
7 | SRGGDDVA | no binding
8 | DRGRDDGS | no binding
9 | YRGKSSWA | binds
10 | VRGGDAVS | no binding
11 | VRGGDAVA | no binding
12 | SRGKGSGV | binds
13 | FRGKGAWD | binds
14 | YRGGDDSS | no binding
15 | YRGGDDSV | no binding
16 | YRGGASWV | binds
17 | YRGGSDGS | no binding
18 | YRGKDASD | binds
19 | YRGKGAVF | binds
20 | YRGKGAVS | binds
21 | VRGGDAVY chain 1 G44D | no binding
22 | SRGKSFGS | binds
23 | YRGRDDGD | no binding
24 | VRGGDDVF | no binding
25 | DRGGDDGS | no binding

Row | Variant | non-specific binding call
26 | VRGKAFVV | binds
27 | SRGKGDAD | no binding
28 | YRGGSDVA | no binding
29 | FRGRASAD | binds
30 | YRGGGSVF | binds
31 | SRGKGALD | binds
32 | VRGRAAGD | no binding
33 | YRGGGFAD | binds
34 | ARGRDAWV | binds
35 | DRGGGDGV | no binding
36 | SRGGGALD | no binding
37 | YRGRASGA | binds
38 | VRGGSDGY | no binding
39 | YRGRDDLA | no binding
40 | YRGGGDWV | no binding
41 | FRGKGSWD | binds
42 | DRGGDDWY | no binding
43 | DRGGDDWV | no binding
44 | VRGGDDWF | no binding
45 | VRGGDDWA | no binding
46 | VRGGGAWV | binds
47 | FRGKDASA | no binding
48 | FRGGGFVV | binds
49 | YRGGGDSV | no binding
50 | YRGRAAVS | binds

Row | Variant | non-specific binding call
51 | YRGGDSSY | no binding
52 | FRGRDDWA | no binding
53 | VRGRDAVS | binds
54 | FRGKGSLA | binds
55 | YRGKSSAD | binds
56 | YRGKSSGF | binds
57 | FRGGSSGS | binds
58 | FRGGSSGV | binds
59 | VRGGGFGV | no binding
60 | VRGGGFGD | binds
61 | YRGKSSVD | binds
62 | DRGGDAVV | no binding
63 | DRGGDAVA | no binding
64 | SRGGSALA | no binding
65 | FRGGSAVY | binds
66 | FRGGSAVD | binds
67 | ARGKASSY | no binding
68 | VRGRDDSA | no binding
69 | VRGGGDGY | no binding
70 | YRGKGSGS | binds
71 | YRGKGSGF | binds
72 | YRGKAFGV | binds
73 | SRGRDAWA | binds
74 | YRGGDSAS | no binding
75 | YRGGDSAY | no binding

Row | Variant | non-specific binding call
76 | YRGKDAWS | binds
77 | YRGKDAWY | binds
78 | DRGGDDVD | no binding
79 | DRGGDDVY | no binding
80 | DRGGDDVV | no binding
81 | YRGGGAAF | binds
82 | YRGKGVGV | binds
83 | YRGKGVGD | binds
84 | VRGGGDAA | no binding
85 | DRGGSSAA | no binding
86 | VRGGSDVD | no binding
87 | VRGGSDVA | no binding
88 | YRGKGSAD | binds
89 | YRGKGSAV | binds
90 | YRGKGSAA | binds
91 | DRGGGDAS | no binding
92 | YRGKGAAS | binds
93 | YRGKGAAF | binds
94 | YRGGGDVS | binds
95 | YRGKGYVV | binds
96 | FRGGSSAA | binds
97 | YRGGASAA | binds
98 | FRGKGAGA | binds
99 | FRGKGAGY | binds
100 | FRGKGAGS | binds

Row | Variant | non-specific binding call
101 | YRGGTSVD | binds
102 | ARGKGSGD | binds
103 | FRGKADVD | binds
104 | YRGGASGA | binds
105 | DRGRDDLV | no binding
106 | YRGGSSGY | binds
107 | FRGKGAAS | binds
108 | FRGKGAAA | binds
109 | FRGKGAAV | binds
110 | VRGKGDWV | no binding
111 | YRGGTFGF | binds
112 | YRGKASGD | binds
113 | YRGRDDWF | no binding
114 | VRGKGAAD | binds
115 | VRGGGAAV | no binding
116 | VRGGGAAY | no binding
117 | VRGKGAWD | binds
118 | VRGKGAWA | binds
119 | YRGKAAVD | binds
120 | YRGRASLY | binds
121 | YRGRDALV | binds
